Measurements as given in PMC8667730.
Substitutions are numbered along the chain they refer to.

B1: flaB mutant F6 (E122, Glu to Ala) (natural protein)
chain: MAINVSTNVSAMTAQRYLNNAADGTQKSMERLSSGYKINSARDDAAGLQISNRLTSQSRGLDMAVRNANDGISIAQTAEGAMNETTNILQRMRDLSLQSANGSNSSSERQAIQEEVSALNDALNRIAETTSFGGNKLLNGSFGNKSFQIGADSGEAVMLSMSDMRSDTKAMGGKSYVATNGKAPDWSVTNATDLTLSYTDKQGEAREVTINAKAGDDLEEVATYINGQNGDIKASVGDEGKLQLFAANQKVSSDVTIGGGLGTEIGFAAGKDVTVKDINVTTVGGSQEAVALIDGALKAVDSQRASLGAFQNRFGHAISNLDNINENVNASRSRIKDTDYARETTQMTKSQILQQASTSVLAQAKQSPSAALSLLG
B2: flaB mutant F12 (L97, Leu to Asn) (natural protein)
chain: B1 chain with L97N, A122E
B3: flaB mutant F11 (N320, Asn to Ala) (natural protein)
chain: B1 chain with A122E, N320A
B4: flaB mutant F14 (I324, Ile to Asn) (natural protein)
chain: B1 chain with A122E, I324N
B5: flaB mutant F1 (Q57, Gln to Ala) (natural protein)
chain: B1 chain with Q57A, A122E
B6: flaB mutant F4 (R91, Arg to Ala) (natural protein)
chain: B1 chain with R91A, A122E
B7: flaB mutant F5 (D94, Asp to Ala) (natural protein)
chain: B1 chain with D94A, A122E
B8: flaB mutant F8 (N312, Asn to Ala) (natural protein)
chain: B1 chain with A122E, N312A
B9: flaB mutant F9 (R313, Arg to Ala) (natural protein)
chain: B1 chain with A122E, R313A
B10: flaB mutant F13 (H316, His to Ala) (natural protein)
chain: B1 chain with A122E, H316A
B11: flaB mutant F2 (N83, Asn to Ala) (natural protein)
chain: B1 chain with N83A, A122E
B12: flaB mutant F7 (D152, Asp to Ala) (natural protein)
chain: B1 chain with A122E, D152A
B13: flaB mutant F3 (N87, Asn to Ala) (natural protein)
chain: B1 chain with N87A, A122E

Target: TLR5 protein from pGEX-6p-1 (GST-His*10-TEV-TLR5, digested with TEV protease), used for SPR (silvery pomfret (Pampus argenteus))
Assay: SPR; BIAcore S200; TLR5 immobilised on an SA sensor chip; flaB proteins injected at 30 uL/min in PBS-P, 25°C; 1:1 Langmuir fit

Row | Molecule | Kd
1 | flagellin B (flaB) from Vibrio anguillarum, wild type, recombinant (from UniProt Q56572 1-376) (natural protein) | 3.28 µM
2 | B1 | 4.4 µM
3 | B2 | 2.41 µM
4 | B3 | 13 µM
5 | B4 | 27.5 µM
6 | B5 | 0.431 µM
7 | B6 | 2.57 µM
8 | B7 | 46.3 µM
9 | B8 | 3.8 µM
10 | B9 | 14.8 µM
11 | B10 | 7.29 µM
12 | B11 | 0.447 µM
13 | B12 | 71.7 µM
14 | B13 | 26.2 µM
